Experimental data as given in patent US20170037124A1 (Regeneron, published 2017).

Legend:
[1] = biological target: T1, human ANGPTL8 peptide (hANGPTL8 peptide, SEQ ID NO: 337) (human); assay: SPR, captured mAb, 500 nM peptide, 25C
T1 construct: also called N-terminal region ANGPTL8 peptide
T1 peptide: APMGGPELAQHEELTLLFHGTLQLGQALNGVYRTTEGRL

[2] = biological target: T2, peptide from the N-terminal coiled-coil region of human ANGPTL3 (hANGPTL3 peptide, SEQ ID NO: 338) (human); assay: SPR, captured mAb, 500 nM peptide, 25C
T2 construct: also called hANGPTL3 shift peptide
T2 peptide: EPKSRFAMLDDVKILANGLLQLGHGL

[3] = biological target: T3, peptide from the N-terminal coiled-coil region of human ANGPTL4 (hANGPTL4 peptide, SEQ ID NO: 339) (human); assay: SPR, captured mAb, 500 nM peptide, 25C
T3 peptide: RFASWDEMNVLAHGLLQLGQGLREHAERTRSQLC

[4] = biological target: T4, human ANGPTL8 expressed with C-terminal mouse IgG2a Fc tag (hANGPTL8-mFc; SEQ ID NO: 340) (human); assay: BLI Octet, captured antigen, 100 nM mAb, 25C
T4 construct: also called Angiopoietin-like protein 8
T4 chain: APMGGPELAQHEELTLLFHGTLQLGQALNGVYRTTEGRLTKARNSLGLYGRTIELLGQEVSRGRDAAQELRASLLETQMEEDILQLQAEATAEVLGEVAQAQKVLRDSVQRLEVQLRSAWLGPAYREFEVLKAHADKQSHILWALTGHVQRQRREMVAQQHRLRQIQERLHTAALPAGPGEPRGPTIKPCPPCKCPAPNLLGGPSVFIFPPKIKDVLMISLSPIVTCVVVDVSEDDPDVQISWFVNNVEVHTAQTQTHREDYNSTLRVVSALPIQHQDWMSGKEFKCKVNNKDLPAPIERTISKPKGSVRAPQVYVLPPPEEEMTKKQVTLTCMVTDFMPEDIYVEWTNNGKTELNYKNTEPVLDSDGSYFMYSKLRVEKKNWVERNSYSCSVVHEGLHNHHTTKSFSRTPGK

[5] = biological target: T5, anti-mFc (AMC) Octet biosensor, blank; assay: BLI Octet, blank AMC sensor, 100 nM mAb, 25C
T5 construct: Sensor without captured protein, used as blank; also called Blank AMC Sensor
Method in brief: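 Antigen-mFc (human or cynomolgus ANGPTL8; hLDLR-mFc as negative control; one blank sensor) captured to ~1.6 nm from 10 μg/mL over 4 min. Sensors dipped 4 min in 100 nM mAb or isotype control at 25° C. Buffer: 10 mM HEPES pH 7.4, 150 mM NaCl, 0.05% Tween-20, 1 mg/ml BSA, shaken at 1000 rpm.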

[6] = biological target: T4, human ANGPTL8 expressed with C-terminal …; assay: BLI Octet, captured antigen, 100 nM mAb, 25C
[7] = biological target: T6, monkey ANGPTL8 expressed with C-terminal mouse IgG2a Fc tag (MfANGPTL8-mFc; SEQ ID NO: 341) (cynomolgus monkey); assay: BLI Octet, captured antigen, 100 nM mAb, 25C
T6 construct: also called cynomolgus monkey ANGPTL8
T6 chain: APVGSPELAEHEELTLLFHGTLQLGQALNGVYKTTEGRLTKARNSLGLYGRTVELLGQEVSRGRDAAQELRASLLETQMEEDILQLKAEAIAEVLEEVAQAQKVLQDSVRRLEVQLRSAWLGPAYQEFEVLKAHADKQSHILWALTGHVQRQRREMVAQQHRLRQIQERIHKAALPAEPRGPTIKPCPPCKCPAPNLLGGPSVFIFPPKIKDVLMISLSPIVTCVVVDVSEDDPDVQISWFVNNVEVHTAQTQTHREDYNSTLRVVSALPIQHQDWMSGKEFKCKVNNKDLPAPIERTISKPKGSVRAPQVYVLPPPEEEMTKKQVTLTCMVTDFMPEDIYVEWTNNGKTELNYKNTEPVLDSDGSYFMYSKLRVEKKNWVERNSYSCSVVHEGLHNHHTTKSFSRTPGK

500 nM hANGPTL8 peptide Bound (RU) [1]: 0 RU | 500 nM hANGPTL3 peptide Bound (RU) [2]: 0 RU | 500 nM hAngPTL4 peptide Bound (RU) [3]: 0 RU | mAb Binding Response (nm) [5]: 0.02 nm | mAb Binding Response (nm) [6]: 0.03 nm | mAb Binding Response (nm) [7]: 0.02 nm
B1: H4H15316P (antibody, human IgG4, V domains shown)
VH: EVQLVESGGGLVQPGRSLRLSCAASGFIFDDYDMHWVRQAPGKGLEWVSGISWNSGSKGYADSVKGRFTISRDNAKNSLYLQMNSLRAEDTALYYCTKGPWDYFDYWGQGTLVTVSS
VL: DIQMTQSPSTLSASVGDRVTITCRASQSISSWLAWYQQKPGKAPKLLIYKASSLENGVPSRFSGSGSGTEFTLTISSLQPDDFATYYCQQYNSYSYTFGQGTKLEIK
notes: H4H prefix: human IgG4 Fc
binding result [1]: no binding (tested: <9 RU at 500 nM peptide) | binding result [2]: no binding (tested: <9 RU at 500 nM peptide) | binding result [3]: no binding (tested: <9 RU at 500 nM peptide) | binding result [4]: no binding (tested: 100 nM mAb; background 0.03 nm)
